Measured values from IntAct's records for PubMed 24510904.

B1: Ras-related protein Rab-7L1 (Homo sapiens), O14966 (parent)
chain: MGSRDHLFKVLVVGDAAVGKTSLVQRYSQDSFSKHYKSTVGVDFALKVLQWSDYEIVRLQLWDIAGQERFTSMTRLYYRDASACVIMFDVTNATTFSNSQRWKQDLDSKLTLPNGEPVPCLLLANKCDLSPWAVSRDQIDRFSKENGFTGWTETSVKENKNINEAMRVLIEKMMRNSTEDIMSLSTQGDYINLQTKSSSWSCC
B2: BAG family molecular chaperone regulator 5 (Homo sapiens), Q9UL15 (parent)
chain: MDMGNQHPSISRLQEIQKEVKSVEQQVIGFSGLSDDKNYKKLERILTKQLFEIDSVDTEGKGDIQQARKRAAQETERLLKELEQNANHPHRIEIQNIFEEAQSLVREKIVPFYNGGNCVTDEFEEGIQDIILRLTHVKTGGKISLRKARYHTLTKICAVQEIIEDCMKKQPSLPLSEDAHPSVAKINFVMCEVNKARGVLIALLMGVNNNETCRHLSCVLSGLIADLDALDVCGRTEIRNYRREVVEDINKLLKYLDLEEEADTTKAFDLRQNHSILKIEKVLKRMREIKNELLQAQNPSELYLSSKTELQGLIGQLDEVSLEKNPCIREARRRAVIEVQTLITYIDLKEALEKRKLFACEEHPSHKAVWNVLGNLSEIQGEVLSFDGNRTDKNYIRLEELLTKQLLALDAVDPQGEEKCKAARKQAVRLAQNILSYLDLKSDEWEY

Variants of: B1
Details: with lrrk2_human LRRK2, Q5S007
Chain of lrrk2_human LRRK2, Q5S007 (Q5S007 whole entry): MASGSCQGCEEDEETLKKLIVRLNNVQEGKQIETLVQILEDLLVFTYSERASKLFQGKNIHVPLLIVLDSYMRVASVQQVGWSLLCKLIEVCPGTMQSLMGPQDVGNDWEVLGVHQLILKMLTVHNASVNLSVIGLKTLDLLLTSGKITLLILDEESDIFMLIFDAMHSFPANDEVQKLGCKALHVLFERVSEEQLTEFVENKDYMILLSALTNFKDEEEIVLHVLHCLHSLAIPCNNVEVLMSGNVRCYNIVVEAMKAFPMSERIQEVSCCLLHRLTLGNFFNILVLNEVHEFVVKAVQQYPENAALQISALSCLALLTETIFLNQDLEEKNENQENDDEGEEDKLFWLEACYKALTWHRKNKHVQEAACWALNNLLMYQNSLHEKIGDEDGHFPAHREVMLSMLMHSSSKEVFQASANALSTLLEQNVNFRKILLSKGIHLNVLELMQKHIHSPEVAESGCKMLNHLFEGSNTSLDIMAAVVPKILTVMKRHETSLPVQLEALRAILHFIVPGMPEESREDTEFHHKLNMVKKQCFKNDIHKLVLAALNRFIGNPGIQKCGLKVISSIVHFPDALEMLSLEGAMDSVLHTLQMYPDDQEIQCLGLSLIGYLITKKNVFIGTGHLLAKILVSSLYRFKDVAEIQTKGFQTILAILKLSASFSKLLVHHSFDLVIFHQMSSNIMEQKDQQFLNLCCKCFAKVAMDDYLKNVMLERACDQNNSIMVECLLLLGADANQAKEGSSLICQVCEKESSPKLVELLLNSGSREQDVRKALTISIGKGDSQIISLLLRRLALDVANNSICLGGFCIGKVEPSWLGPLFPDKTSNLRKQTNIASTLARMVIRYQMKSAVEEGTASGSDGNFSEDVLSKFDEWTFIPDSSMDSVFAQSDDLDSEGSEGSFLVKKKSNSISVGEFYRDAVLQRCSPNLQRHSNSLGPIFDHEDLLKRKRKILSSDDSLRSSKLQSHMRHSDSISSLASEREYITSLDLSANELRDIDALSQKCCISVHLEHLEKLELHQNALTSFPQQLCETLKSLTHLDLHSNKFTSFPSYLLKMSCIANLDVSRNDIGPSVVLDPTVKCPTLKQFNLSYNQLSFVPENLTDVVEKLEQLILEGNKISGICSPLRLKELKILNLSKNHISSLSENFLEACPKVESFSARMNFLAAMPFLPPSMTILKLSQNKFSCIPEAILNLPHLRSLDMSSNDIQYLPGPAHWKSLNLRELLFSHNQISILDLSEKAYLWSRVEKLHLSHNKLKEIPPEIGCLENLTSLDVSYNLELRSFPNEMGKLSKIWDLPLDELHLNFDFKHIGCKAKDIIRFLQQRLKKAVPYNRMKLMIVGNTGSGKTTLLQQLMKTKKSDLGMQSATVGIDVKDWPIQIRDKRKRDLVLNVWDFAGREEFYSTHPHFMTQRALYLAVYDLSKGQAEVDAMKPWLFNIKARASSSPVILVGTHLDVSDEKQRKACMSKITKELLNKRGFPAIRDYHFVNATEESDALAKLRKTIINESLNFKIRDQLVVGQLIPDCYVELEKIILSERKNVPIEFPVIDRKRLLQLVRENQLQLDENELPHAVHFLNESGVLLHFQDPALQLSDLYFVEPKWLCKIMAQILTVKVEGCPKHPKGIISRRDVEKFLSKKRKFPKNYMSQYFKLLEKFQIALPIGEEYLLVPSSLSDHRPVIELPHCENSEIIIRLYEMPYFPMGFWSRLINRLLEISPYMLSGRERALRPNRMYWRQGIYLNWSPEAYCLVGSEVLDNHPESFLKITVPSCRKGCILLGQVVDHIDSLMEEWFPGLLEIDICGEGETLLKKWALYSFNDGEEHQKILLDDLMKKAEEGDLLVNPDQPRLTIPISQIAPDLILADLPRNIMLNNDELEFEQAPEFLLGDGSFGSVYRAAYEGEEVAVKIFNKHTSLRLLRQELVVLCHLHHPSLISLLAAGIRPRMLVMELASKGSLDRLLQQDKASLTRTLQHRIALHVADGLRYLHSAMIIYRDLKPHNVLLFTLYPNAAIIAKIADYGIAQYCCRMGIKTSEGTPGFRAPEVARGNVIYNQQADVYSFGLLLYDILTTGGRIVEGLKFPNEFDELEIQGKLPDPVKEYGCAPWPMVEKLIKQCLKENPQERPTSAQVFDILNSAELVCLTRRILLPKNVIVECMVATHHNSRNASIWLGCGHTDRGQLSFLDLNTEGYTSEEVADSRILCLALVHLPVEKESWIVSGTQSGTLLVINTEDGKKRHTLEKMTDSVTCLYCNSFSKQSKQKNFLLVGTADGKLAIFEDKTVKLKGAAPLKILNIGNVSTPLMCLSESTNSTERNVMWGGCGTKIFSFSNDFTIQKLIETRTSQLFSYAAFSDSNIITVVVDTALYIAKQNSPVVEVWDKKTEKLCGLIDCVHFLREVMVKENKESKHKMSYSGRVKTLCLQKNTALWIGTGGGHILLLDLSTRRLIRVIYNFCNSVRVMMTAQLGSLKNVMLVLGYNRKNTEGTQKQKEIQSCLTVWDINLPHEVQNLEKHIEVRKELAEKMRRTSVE

| Variant | effect of a mutation on the interaction |
| --- | --- |
| Q67L | increasing interaction |
| T21N | increasing interaction |

Variants of: B1
Details: with lrrk2_human LRRK2, Q5S007
Remark: another data set of the same source

| Variant | effect of a mutation on the interaction |
| --- | --- |
| Q67L | disrupting interaction |

Variants of: B2
Details: with lrrk2_human LRRK2, Q5S007

| Variant | effect of a mutation on the interaction |
| --- | --- |
| D54A;R68A;D228A;R242A;D318A;R332A;D410A;R424A | decreasing interaction |
